Results from EP4729546A1 (Jiangsu BioJeTay Biotechnology Co., Ltd., dated 2026).

Tests used:
huFXII-his (human) [1] = biological target: huFXII-his (human) (UniProt P00748); test: cell-based or functional assay
huFXII-his (human) [2] = biological target: huFXII-his (human) (UniProt P00748); test: ELISA, huFXII-his coated at 1 µg/ml, HRP anti-human secondary, OD450

Sequence of huFXII-his (human) (P00748 20-615, form in doubt): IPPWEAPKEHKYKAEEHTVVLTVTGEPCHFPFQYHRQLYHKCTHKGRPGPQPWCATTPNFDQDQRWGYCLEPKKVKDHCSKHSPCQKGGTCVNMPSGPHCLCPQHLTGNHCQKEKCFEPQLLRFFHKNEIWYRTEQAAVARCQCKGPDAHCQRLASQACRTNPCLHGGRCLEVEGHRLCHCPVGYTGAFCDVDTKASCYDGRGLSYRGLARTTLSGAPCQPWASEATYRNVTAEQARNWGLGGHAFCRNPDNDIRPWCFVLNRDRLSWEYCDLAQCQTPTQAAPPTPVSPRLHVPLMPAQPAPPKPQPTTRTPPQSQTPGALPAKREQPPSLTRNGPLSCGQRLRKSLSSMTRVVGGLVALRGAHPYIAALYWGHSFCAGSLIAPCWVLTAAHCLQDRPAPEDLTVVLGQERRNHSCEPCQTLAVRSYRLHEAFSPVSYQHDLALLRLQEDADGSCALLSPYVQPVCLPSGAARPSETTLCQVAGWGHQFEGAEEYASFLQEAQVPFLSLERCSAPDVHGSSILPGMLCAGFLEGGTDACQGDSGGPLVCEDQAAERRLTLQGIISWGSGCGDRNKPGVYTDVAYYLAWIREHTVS

IC50 of inhibition of cleavage of chemical substrate S2302 by FXIIa (OD405) (huFXII-his (human) [1]) [µg/mL] | EC50 (huFXII-his (human) [2]) [µg/mL] | Binder
0.0178 | 0.164 | FX-Y17-Y2 (antibody, V domains shown) VH: EVQLLESGGGLVQPGGSLRLSCAGSGFSFGSQTMSWVRQAPGKGLEWVSSISHISGRTYYADSVKGRFTISRDNSKNTLYLQMNSLRAEDTAVYYCTKSHAFDVWGQGTMVTVSS VL: EIVLTQSPATLSVSPGERATLSCRASQSVYSALAWYQQKPGQAPRLLIYGASTRATGIPARFSGSGSGTEFTLTISSLQSEDFAVYYCQQNNKWPLSFGGGTKVEIK
0.0214 | 0.149 | FX-Y17-Y19 (antibody, V domains shown) VH: EVQLLESGGGLVQPGGSLRLSCAGSGFSFGSQTMSWVRQAPGKGLEWVSSISVISKRTYYADSVKGRFTISRDNSKNTLYLQMNSLRAEDTAVYYCTRSHAFDVWGQGTMVTVSS VL: EIVLTQSPATLSVSPGERATLSCRASQSVYSALAWYQQKPGQAPRLLIYGASTRATGIPARFSGSGSGTEFTLTISSLQSEDFAVYYCQQYHKWPLSFGGGTKVEIK
0.0296 | 0.364 | FX-Y17-Y12 (antibody, V domains shown) VH: EVQLLESGGGLVQPGGSLRLSCAGSGFSFGSQTMSWVRQAPGKGLEWVSSISVISGRTYYADSVKGRFTISRDNSKNTLYLQMNSLRAEDTAVYYCTKWHAFDVWGQGTMVTVSS VL: EIVLTQSPATLSVSPGERATLSCRASQSLYSHLAWYQQKPGQAPRLLIYGASTRATGIPARFSGSGSGTEFTLTISSLQSEDFAVYYCQQYKKWPLSFGGGTKVEIK
0.0127 | 0.083 | FX-Y17-Y30 (antibody, V domains shown) VH: EVQLLESGGGLVQPGGSLRLSCAGSGFSFGSQTMSWVRQAPGKGLEWVSSISVISGRTYYADSVKGRFTISRDNSKNTLYLQMNSLRAEDTAVYYCAKSHAFDVWGQGTMVTVSS VL: EIVLTQSPATLSVSPGERATLSCRASQSVFSNLAWYQQKPGQAPRLLIYGASTRATGIPARFSGSGSGTEFTLTISSLQSEDFAVYYCQQYHWWPLSFGGGTKVEIK
0.0242 | 0.172 | FX-Y17-Y18 (antibody, V domains shown) VH: EVQLLESGGGLVQPGGSLRLSCAGSGFSFGSQTMSWVRQAPGKGLEWVSSISVISGRSYYADSVKGRFTISRDNSKNTLYLQMNSLRAEDTAVYYCTKHHAFDVWGQGTMVTVSS VL: EIVLTQSPATLSVSPGERATLSCRASQSVWSNLAWYQQKPGQAPRLLIYGASTRATGIPARFSGSGSGTEFTLTISSLQSEDFAVYYCQQYHKWPLSFGGGTKVEIK
0.0259 | 0.128 | FX-Y17-Y13 (antibody, V domains shown) VH: EVQLLESGGGLVQPGGSLRLSCAGSGFSFGSQTMSWVRQAPGKGLEWVSSISVISRRTYYADSVKGRFTISRDNSKNTLYLQMNSLRAEDTAVYYCTRSHAFDVWGQGTMVTVSS VL: EIVLTQSPATLSVSPGERATLSCRASQSVYSNLAWYQQKPGQAPRLLIYGASTRATGIPARFSGSGSGTEFTLTISSLQSEDFAVYYCQQYHKWPLSFGGGTKVEIK
0.0154 | 0.216 | FX-Y17-Y3 (antibody, V domains shown) VH: EVQLLESGGGLVQPGGSLRLSCAGSGFSFGSQTMSWVRQAPGKGLEWVSSISYISGRTYYADSVKGRFTISRDNSKNTLYLQMNSLRAEDTAVYYCTKSHAFDVWGQGTMVTVSS VL: EIVLTQSPATLSVSPGERATLSCRASQSVWSNLAWYQQKPGQAPRLLIYGASTRATGIPARFSGSGSGTEFTLTISSLQSEDFAVYYCQQYHKWPLSFGGGTKVEIK
0.0143 | 0.0629 | FX-Y17-Y37 (antibody, V domains shown) VH: EVQLLESGGGLVQPGGSLRLSCAGSGFSFGSQTMSWVRQAPGKGLEWVSSISVISGRSYYADSVKGRFTISRDNSKNTLYLQMNSLRAEDTAVYYCTKSHAFDVWGQGTMVTVSS VL: EIVLTQSPATLSVSPGERATLSCRASQSVWSNLAWYQQKPGQAPRLLIYGASTRATGIPARFSGSGSGTEFTLTISSLQSEDFAVYYCQQYHKWPLSFGGGTKVEIK
0.0156 | 0.117 | FX-Y17-Y31 (antibody, V domains shown) VH: EVQLLESGGGLVQPGGSLRLSCAGSGFSFGSQTMSWVRQAPGKGLEWVSSISVISGRNYYADSVKGRFTISRDNSKNTLYLQMNSLRAEDTAVYYCAKSHAFDVWGQGTMVTVSS VL: EIVLTQSPATLSVSPGERATLSCRASQSVWSNLAWYQQKPGQAPRLLIYGASTRATGIPARFSGSGSGTEFTLTISSLQSEDFAVYYCQQYHKWPLSFGGGTKVEIK
0.02 | 0.136 | FX-Y17-Y7 (antibody, V domains shown) VH: EVQLLESGGGLVQPGGSLRLSCAGSGFSFGSQTMSWVRQAPGKGLEWVSSISVISGRAYYADSVKGRFTISRDNSKNTLYLQMNSLRAEDTAVYYCTKSHAFDVWGQGTMVTVSS VL: EIVLTQSPATLSVSPGERATLSCRASQSVYSALAWYQQKPGQAPRLLIYGASTRATGIPARFSGSGSGTEFTLTISSLQSEDFAVYYCQQYHKWPLSFGGGTKVEIK
0.0196 | 0.237 | FX-Y17-Y8 (antibody, V domains shown) VH: EVQLLESGGGLVQPGGSLRLSCAGSGFSFGSQTMSWVRQAPGKGLEWVSSISVISRRTYYADSVKGRFTISRDNSKNTLYLQMNSLRAEDTAVYYCTKSHAFDVWGQGTMVTVSS VL: EIVLTQSPATLSVSPGERATLSCRASQSVWSNLAWYQQKPGQAPRLLIYGASTRATGIPARFSGSGSGTEFTLTISSLQSEDFAVYYCQQYHKWPLSFGGGTKVEIK
0.021 | 0.125 | FX-Y17-Y16 (antibody, V domains shown) VH: EVQLLESGGGLVQPGGSLRLSCAGSGFSFGSQTMSWVRQAPGKGLEWVSSISVISGRSYYADSVKGRFTISRDNSKNTLYLQMNSLRAEDTAVYYCAKSHAFDVWGQGTMVTVSS VL: EIVLTQSPATLSVSPGERATLSCRASQSVYSALAWYQQKPGQAPRLLIYGASTRATGIPARFSGSGSGTEFTLTISSLQSEDFAVYYCQQYHKWPLSFGGGTKVEIK
0.0138 | 0.14 | FX-Y17-Y14 (antibody, V domains shown) VH: EVQLLESGGGLVQPGGSLRLSCAGSGFSFGSQTMSWVRQAPGKGLEWVSSISHISGRTYYADSVKGRFTISRDNSKNTLYLQMNSLRAEDTAVYYCTKSHRFDVWGQGTMVTVSS VL: EIVLTQSPATLSVSPGERATLSCRASQSVYSALAWYQQKPGQAPRLLIYGASTRATGIPARFSGSGSGTEFTLTISSLQSEDFAVYYCQQNNKWPLSFGGGTKVEIK
0.0321 | 0.257 | FX-Y17-Y46 (antibody, V domains shown) VH: EVQLLESGGGLVQPGGSLRLSCAGSGFSFGSQTMSWVRQAPGKGLEWVSSISYISGRTYYADSVKGRFTISRDNSKNTLYLQMNSLRAEDTAVYYCTKGHAFDVWGQGTMVTVSS VL: EIVLTQSPATLSVSPGERATLSCRASQSVWSNLAWYQQKPGQAPRLLIYGASTRATGIPARFSGSGSGTEFTLTISSLQSEDFAVYYCQQYQKWPLSFGGGTKVEIK
0.0244 | 0.228 | FX-Y17-Y9 (antibody, V domains shown) VH: EVQLLESGGGLVQPGGSLRLSCAGSGFSFGSQTMSWVRQAPGKGLEWVSSISVISGRKYYADSVKGRFTISRDNSKNTLYLQMNSLRAEDTAVYYCAKSHAFDVWGQGTMVTVSS VL: EIVLTQSPATLSVSPGERATLSCRASQSVYSALAWYQQKPGQAPRLLIYGASTRATGIPARFSGSGSGTEFTLTISSLQSEDFAVYYCQQYHKWPLSFGGGTKVEIK
0.0254 | 0.167 | FX-Y17-Y5 (antibody, V domains shown) VH: EVQLLESGGGLVQPGGSLRLSCAGSGFSFGSQTMSWVRQAPGKGLEWVSSISVISGRYYYADSVKGRFTISRDNSKNTLYLQMNSLRAEDTAVYYCTKSHAFDVWGQGTMVTVSS VL: EIVLTQSPATLSVSPGERATLSCRASQSVYSALAWYQQKPGQAPRLLIYGASTRATGIPARFSGSGSGTEFTLTISSLQSEDFAVYYCQQYHKWPLSFGGGTKVEIK
0.028 | 0.161 | FX-Y17-Y10 (antibody, V domains shown) VH: EVQLLESGGGLVQPGGSLRLSCAGSGFSFGSQTMSWVRQAPGKGLEWVSSISVISGRAYYADSVKGRFTISRDNSKNTLYLQMNSLRAEDTAVYYCTKAHAFDVWGQGTMVTVSS VL: EIVLTQSPATLSVSPGERATLSCRASQSVYSALAWYQQKPGQAPRLLIYGASTRATGIPARFSGSGSGTEFTLTISSLQSEDFAVYYCQQYHKWPLSFGGGTKVEIK
0.0155 | 0.0781 | FX-Y17-Y40 (antibody, V domains shown) VH: EVQLLESGGGLVQPGGSLRLSCAGSGFSFGSQTMSWVRQAPGKGLEWVSSISVISGRTYYADSVKGRFTISRDNSKNTLYLQMNSLRAEDTAVYYCTKAHAFDVWGQGTMVTVSS VL: EIVLTQSPATLSVSPGERATLSCRASQSVWSNLAWYQQKPGQAPRLLIYGASTRATGIPARFSGSGSGTEFTLTISSLQSEDFAVYYCQQYHKWPLSFGGGTKVEIK
0.0199 | 0.169 | FX-Y17-Y17 (antibody, V domains shown) VH: EVQLLESGGGLVQPGGSLRLSCAGSGFSFGSQTMSWVRQAPGKGLEWVSSISYISGRTYYADSVKGRFTISRDNSKNTLYLQMNSLRAEDTAVYYCTKGHAFDVWGQGTMVTVSS VL: EIVLTQSPATLSVSPGERATLSCRASQSVWSNLAWYQQKPGQAPRLLIYGASTRATGIPARFSGSGSGTEFTLTISSLQSEDFAVYYCQQYHKWPLSFGGGTKVEIK
0.0202 | 0.131 | FX-Y17-Y15 (antibody, V domains shown) VH: EVQLLESGGGLVQPGGSLRLSCAGSGFSFGSQTMSWVRQAPGKGLEWVSSISVISGRPYYADSVKGRFTISRDNSKNTLYLQMNSLRAEDTAVYYCTKSHAFDVWGQGTMVTVSS VL: EIVLTQSPATLSVSPGERATLSCRASQSVYSALAWYQQKPGQAPRLLIYGASTRATGIPARFSGSGSGTEFTLTISSLQSEDFAVYYCQQYHKWPLSFGGGTKVEIK
